This passage reports fold reduction of binding against F10 and fold reduction of binding against CR6261 results from patent US20220135655A1.

This assay addresses H5VN04 recombinant trimeric hemagglutinin (HA) (influenza A virus H5VN04 (H5N1)).

Bounds are passed on as bounds.

F10 Y98A scFv: the fold reduction of binding against F10 was over 3000 fold.
For CR6261 F54A scFv, the fold reduction of binding against CR6261 came to 800 fold.
Same read-out and setting: to CR6261 Y98A scFv belongs over 4000 fold.
